Source: US20190010233A1
“And” between values parts separate entries of the source, which are not always exact repeats. Equal values may be shown once.

Tests used:
[1] = target: full length cyno PD-L1 on cells (cyno) (UniProt G7PSE7); experiment: FACS CHO-K1-cPD-L1, 10 nM mAb
[2] = target: full length cyno PD-L1 on cells (cyno) (UniProt G7PSE7); experiment: FACS CHO-K1-cPD-L1, 100.00 nM mAb
[3] = target: human PD-L1^ECD-hFc protein (human) (UniProt Q9NZQ7); experiment: ELISA, 100 nM mAb
[4] = target: cyno PD-L1^ECD-hFc protein (cyno) (UniProt G7PSE7); experiment: ELISA, 100 nM mAb
[5] = target: full length cyno PD-L1 on cells (cyno) (UniProt G7PSE7); experiment: FACS CHO-K1-cPD-L1, 300 nM mAb
[6] = target: human PD-L1^ECD-hFc protein (human) (UniProt Q9NZQ7); experiment: ELISA, 30 nM mAb
[7] = target: cyno PD-L1^ECD-hFc protein (cyno) (UniProt G7PSE7); experiment: ELISA, 30 nM mAb
[8] = target: full length human PD-L1 on cells (human) (UniProt Q9NZQ7); experiment: FACS CHOK1-hPD-L1, 300 nM mAb
[9] = target: full length cyno PD-L1 on cells (cyno) (UniProt G7PSE7); experiment: FACS CHO-K1-cPD-L1, 1.23 nM mAb
[10] = target: full length human PD-L1 on cells (human) (UniProt Q9NZQ7); experiment: FACS CHOK1-hPD-L1, 3 nM mAb
[11] = target: full length cyno PD-L1 on cells (cyno) (UniProt G7PSE7); experiment: FACS CHO-K1-cPD-L1, 0.0003 nM mAb
[12] = target: full length cyno PD-L1 on cells (cyno) (UniProt G7PSE7); experiment: FACS CHO-K1-cPD-L1, 0.14 nM mAb
[13] = target: full length cyno PD-L1 on cells (cyno) (UniProt G7PSE7); experiment: FACS CHO-K1-cPD-L1, 3 nM mAb
[14] = target: human PD-L1^ECD-hFc protein (human) (UniProt Q9NZQ7); experiment: ELISA, 3.333 nM mAb
[15] = target: cyno PD-L1^ECD-hFc protein (cyno) (UniProt G7PSE7); experiment: ELISA, 3.333 nM mAb
[16] = target: human PD-L1^ECD-hFc protein (human) (UniProt Q9NZQ7); experiment: ELISA, 0.00003 nM mAb
[17] = target: cyno PD-L1^ECD-hFc protein (cyno) (UniProt G7PSE7); experiment: ELISA, 0.00003 nM mAb
[18] = target: cyno PD-L1^ECD-hFc protein (cyno) (UniProt G7PSE7); experiment: ELISA, 0.01 nM mAb
[19] = target: human PD-L1^ECD-hFc protein (human) (UniProt Q9NZQ7); experiment: ELISA, 0.03 nM mAb
[20] = target: cyno PD-L1^ECD-hFc protein (cyno) (UniProt G7PSE7); experiment: ELISA, 0.03 nM mAb
[21] = target: full length human PD-L1 on cells (human) (UniProt Q9NZQ7); experiment: FACS CHO-K1-hPD-L1, 100.00 nM mAb
[22] = target: human PD-L1^ECD-hFc protein (human) (UniProt Q9NZQ7); experiment: ELISA, 0.041 nM mAb
[23] = target: cyno PD-L1^ECD-hFc protein (cyno) (UniProt G7PSE7); experiment: ELISA, 0.041 nM mAb
[24] = target: full length cyno PD-L1 on cells (cyno) (UniProt G7PSE7); experiment: FACS CHO-K1-cPD-L1, 0.003 nM mAb
[25] = target: human PD-L1^ECD-hFc protein (human) (UniProt Q9NZQ7); experiment: ELISA, 0.1 nM mAb
[26] = target: cyno PD-L1^ECD-hFc protein (cyno) (UniProt G7PSE7); experiment: ELISA, 0.1 nM mAb
[27] = target: full length human PD-L1 on cells (human) (UniProt Q9NZQ7); experiment: FACS CHO-K1-hPD-L1, 10 nM mAb
[28] = target: cyno PD-L1^ECD-hFc protein (cyno) (UniProt G7PSE7); experiment: ELISA, 10 nM mAb
[29] = target: full length cyno PD-L1 on cells (cyno) (UniProt G7PSE7); experiment: FACS CHO-K1-cPD-L1, 1 nM mAb
[30] = target: human PD-L1^ECD-hFc protein (human) (UniProt Q9NZQ7); experiment: ELISA, 0.3 nM mAb
[31] = target: cyno PD-L1^ECD-hFc protein (cyno) (UniProt G7PSE7); experiment: ELISA, 0.3 nM mAb
[32] = target: full length human PD-L1 on cells (human) (UniProt Q9NZQ7); experiment: FACS CHOK1-hPD-L1, 0.03 nM mAb
[33] = target: full length human PD-L1 on cells (human) (UniProt Q9NZQ7); experiment: FACS CHO-K1-hPD-L1, 1 nM mAb
[34] = target: full length cyno PD-L1 on cells (cyno) (UniProt G7PSE7); experiment: FACS CHO-K1-cPD-L1, 0.03 nM mAb
[35] = target: human PD-L1^ECD-hFc protein (human) (UniProt Q9NZQ7); experiment: ELISA, 1 nM mAb
[36] = target: cyno PD-L1^ECD-hFc protein (cyno) (UniProt G7PSE7); experiment: ELISA, 1 nM mAb
[37] = target: human PD-L1^ECD-hFc protein (human) (UniProt Q9NZQ7); experiment: ELISA, 0.003 nM mAb
[38] = target: cyno PD-L1^ECD-hFc protein (cyno) (UniProt G7PSE7); experiment: ELISA, 0.003 nM mAb
[39] = target: full length cyno PD-L1 on cells (cyno) (UniProt G7PSE7); experiment: FACS CHO-K1-cPD-L1, 3.70 nM mAb
[40] = target: human PD-L1^ECD-hFc protein (human) (UniProt Q9NZQ7); experiment: ELISA, 10 nM mAb
[41] = target: cyno PD-L1^ECD-hFc protein (cyno) (UniProt G7PSE7); experiment: ELISA, 10 nM mAb; remark: listed apart in the source

Chain of full length cyno PD-L1 on cells (cyno) (G7PSE7 entry or part of it limits assumed): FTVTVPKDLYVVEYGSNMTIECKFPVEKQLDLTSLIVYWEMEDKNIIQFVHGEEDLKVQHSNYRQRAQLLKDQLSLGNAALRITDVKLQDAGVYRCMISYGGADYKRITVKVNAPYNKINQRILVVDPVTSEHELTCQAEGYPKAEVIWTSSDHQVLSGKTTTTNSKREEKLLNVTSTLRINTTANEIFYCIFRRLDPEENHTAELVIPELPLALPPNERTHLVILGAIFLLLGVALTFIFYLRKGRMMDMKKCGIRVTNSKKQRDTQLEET
Chain of human PD-L1^ECD-hFc protein (human) (Q9NZQ7 19-239): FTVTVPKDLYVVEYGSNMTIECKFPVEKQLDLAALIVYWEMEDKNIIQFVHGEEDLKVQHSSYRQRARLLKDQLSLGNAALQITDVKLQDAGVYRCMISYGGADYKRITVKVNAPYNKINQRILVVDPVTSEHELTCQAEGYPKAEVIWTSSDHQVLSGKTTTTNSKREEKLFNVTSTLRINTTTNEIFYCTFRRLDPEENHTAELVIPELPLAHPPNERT
Chain of cyno PD-L1^ECD-hFc protein (cyno) (G7PSE7 entry or part of it limits assumed): as the sequence (Q9NZQ7 19-239) above, with A33T, A34S, S62N, R68Q, Q82R, F173L, T185A, T192I, H215L counted along it
Chain of full length human PD-L1 on cells (human) (Q9NZQ7 19-290 limits assumed): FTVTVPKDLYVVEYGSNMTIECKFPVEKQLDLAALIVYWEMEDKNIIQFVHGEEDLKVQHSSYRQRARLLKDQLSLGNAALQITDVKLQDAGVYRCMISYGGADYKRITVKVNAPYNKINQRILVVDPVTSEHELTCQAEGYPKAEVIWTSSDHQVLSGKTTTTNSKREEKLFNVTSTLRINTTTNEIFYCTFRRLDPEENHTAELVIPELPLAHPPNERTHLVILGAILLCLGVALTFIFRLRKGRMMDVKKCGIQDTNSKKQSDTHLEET

Q: What does the source list for IgG control (human IgG) (antibody)?
A: Mean fluorescence intensity [1]: 1.95; Mean fluorescence intensity [2]: 3.33 and 8.11; OD450 nm [3]: 0.767; OD450 nm [4]: 0.398; Mean fluorescence intensity [5]: 15.6; OD450 nm [6]: 0.315; OD450 nm [7]: 0.12; Mean fluorescence intensity [8]: 4.86; Mean fluorescence intensity [9]: 2.82; Mean fluorescence intensity [10]: 3.56; Mean fluorescence intensity [11]: 3.76; Mean fluorescence intensity [12]: 2.74; Mean fluorescence intensity [13]: 3.91; OD450 nm [14]: 0.11; OD450 nm [15]: 0.11; OD450 nm [16]: 0.296; OD450 nm [17]: 0.31; OD450 nm [18]: 0.0987; OD450 nm [19]: 0.273; OD450 nm [20]: 0.276; Mean fluorescence intensity [21]: 2.7; OD450 nm [22]: 0.11; OD450 nm [23]: 0.11; Mean fluorescence intensity [24]: 3.62; OD450 nm [25]: 0.149; OD450 nm [26]: 0.0967; Mean fluorescence intensity [27]: 2.73; OD450 nm [28]: 0.134; Mean fluorescence intensity [29]: 1.83; OD450 nm [30]: 0.293; OD450 nm [31]: 0.28; Mean fluorescence intensity [32]: 2.92; Mean fluorescence intensity [33]: 2.51; Mean fluorescence intensity [34]: 3.79; OD450 nm [35]: 0.157; OD450 nm [36]: 0.0989; OD450 nm [37]: 0.298; OD450 nm [38]: 0.302; Mean fluorescence intensity [39]: 2.73; OD450 nm [40]: 0.225; OD450 nm [41]: 0.15
